From the supplement of paper PMC12338614

B1: library; numbered along this chain (parent)
chain: MEVVDPQQLGMFTEGELMSVGMDTFIHRIDSTEVIYQPRRKRAKLIGKYLMGDLLGEGSYGKVKEVLDSETLCRRAVKILKKKKLRRIPNGEANVKKEIQLLRRLRHKNVIQLVDVLYNEEKQKMYMVMEYCVCGMQEMLDSVPEKRFPVCQAHGYFCQLIDGLEYLHSQGIVHKDIKPGNLLLTTGGTLKISDLGVAEALHPFAADDTCRTSQGSPAFQPPEIANGLDTFSGFKVDIWSAGVTLYNITTGLYPFEGDNIYKLFENIGKGSYAIPGDCGPPLSDLLKGMLEYEPAKRFSIRQIRQHSWFRKKHPPAEAPVPIPPSPDTKDRWRSMTVVPYLEDLHGADEDEDLFDIEDDIIYTQDFTVPGQVPEEEASHNGQRRGLPKAVCMNGTEAAQLSTKSRAEGRAPNPARKACSASSKIRRLSACKQQ

Variants of: B1
Assay: STK11 functional score (HeLa growth suppression), rescaled enrichment; synonymous median = 1, nonsense median = 0 (normalised score)
Conditions: with HeLa; variant type: missense
In short: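 The functional score takes the post/pre-selection log ratio, corrects it to wild type, rescales it to synonymous and nonsense medians, and merges it over codons and replicate transfections, with error from bootstrapping. Counts came from tiled gDNA amplicons sequenced on NextSeq (~2 million reads per tile). The libraries were POPCode codon-randomised, codon-optimised STK11 integrated by Bxb1 at an AAVS1 landing pad in HeLa, three regions with three transfections each.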

STK11 functional score, by site and new letter:
R425: L 1.4; G 1.55; T 1.52; A 1.59; E 1.23; V 0.938; P 1.51; F 1.11; N 1.62; S 1.54; C 1.27; M 1.51; W 1.03; I 0.977; H 1.56; D 1.61
E407: M 1.58; C 1.21; I 1.61; G 0.689; L 0.778; S 1.57; A 1.52; P 1.6; V 1.38; T 1.61; D 1.56; W 0.194; K 1.55; Q 0.809; R 1.52; F 1.26
S422: K 1.53; I 1.3; A 1.5; N 0.705; L 1.17; Y 1.54; Q 1.58; C 1.44; T 0.705; D 1.59; V 1.05; F 1.4; E 1.49; R 1.47; W 1.4; G 1.49
I424: S 1.37; M 1.42; N 1.44; G 0.657; F 1.04; K 1.22; R 1.5; Q 1.55; D 1.54; C 1.35; V 1.33; Y 1.12; L 1.34; A 1.58; W 0.789; T 1.49
G408: L 1.59; K 1.56; S 1.59; W 1.48; H 1.63; F 1.24; Y 1.49; A 1.61; N 1.54; I 1.51; E 1.54; V 1.2; M 1.56; R 1.59; T 1.61
A406: S 1.41; E 1.45; P 1.21; T 1.42; H 1.6; M 0.606; D 1.4; R 1.59; Q 1.56; I 1.6; F 1.4; C 1.52; K 1.28; V 1.52; Y 1.07; L 1.57; W 1.46; G 1.33; N 1.58
K423: C 1.58; W 1.49; Y 1.41; N 1.52; T 1.57; D 1.14; L 1.45; V 1.28; R 1.17; H 0.899; G 1.56; F 1.07; A 0.687; S 1.56; Q 0.701; E 1.62; I 1.25
S419: F 1.46; G 1.58; E 1.24; H 1.63; A 1.37; D 1.1; I 1.16; L 1.17; K 1.39; Y 1.61; V 0.892; N 1.54
A420: V 1.52; G 1.52; R 1.51; L 1.61
N412: P 1.56; Y 1.55; Q 1.37; W 0.786; T 1.09; C 1.11; R 1.57; F 1.23; E 1.52; L 1.62; G 1.63; K 0.831; A 1.53; M 0.405; V 1.33; H 1.1; I 1.21; S 1.48; D 1.53
S404: N 1.52; K 1.56; E 1.34; G 1.57; V 1.53; I 1.22; W 1.43; F 0.794; L 1.47; H 1.6; D 1.18; M 1.58; Y 0.966; T 1.23
K416: R 1.54; Y 1.2; G 1.55; N 0.923; F 0.683; H 1.42; T 1.37; C 1.14; S 1.55; I 1.55; Q 1.46; W 0.693; L 0.986; D 1.61; P 1.61; M 1.67; V 1.39
R415: N 1.58; Y 1.49; F 0.952; E 1.48; G 1.53; H 1.6; L 1.61; M 1.4; C 1.25; T 0.914; D 1.43; I 0.924; K 1.17; W 1.5; S 1.5; V 1.57
A414: W 1.63; S 1.57; D 0.946; E 1.54; Y 1.58; G 1.21; V 1.48; R 1.58; M 1.56; I 1.33; C 1.59; K 1.55; L 1.16; F 1.38
P413: A 1.5; T 1.44; S 1.46; R 1.49; N 1.6; W 0.886; E 1.59; M 1.53; G 1.56; C 1.17; Y 1.47; K 1.55; D 1.6; V 1.4; H 1.61; I 1.56; L 1.31
S421: I 1.52; E 1.56; C 0.549; G 1.38; L 1.62; F 1.08; R 1.44; N 1.6; Y 1.61; K 1.45; V 1.38; D 1.62; T 1.12
P411: D 1.59; V 1.62; L 1.16; N 1.55; K 1.57; F 0.906; G 1.14; I 1.55; A 1.04; M 1.58; E 1.61; R 0.986; S 1.23; W 0.581
A410: K 1.6; M 0.531; T 0.749; I 1.54; H 1.23; Q 1.21; L 1.42; E 1.34; D 1.17; W 1.68; G 1.23; C 1.33; F 1.4; V 1.32; Y 1.38; N 1.32; R 1.6; P 0.257; S 1.4
A417: D 1.41; C 1.24; I 1.51; R 1.6; E 1.22; V 0.845; L 1.51; P 1.2; N 1.55; M 1.47; S 1.25; H 0.849; G 1.47; F 1.15; T 1.55
R405: S 1.54; C 1.3; K 1.33; M 1.6; V 1.62; H 1.59; P 1.27; I 1.6; T 1.24; F 1.59; Y 0.397; D 0.895; L 1.59; G 1.48; N 1.33
C418: L 1.46; D 1.57; S 1.51; M 1.54; T 1.58; E 1.58; R 1.54; Y 1.6; A 1.62; G 1.61; I 1.41; H 1.17; V 1.62
R409: V 1.22; N 1.55; M 1.15; C 1.28; T 1.47; L 1.02; I 1.24; W 1.42; E 1.57; Y 1.53; A 1.49; P 1.57; K 1.39; S 1.02; F 0.845; G 1.25; D 1.09
